This note sets out measurements from PMC6061880.

Common to all, as to assay: EMSA
Holding throughout (details): 10 mM Tris-Cl pH 7.5, 10 mM MgCl2, 100 mM KCl, 0.5 ug/ul yeast RNA, 7.5% glycerol, SUPERase In; 5 nM RNA; 30 min at 37 C; 6% native PAGE at 4 C
(Mobility shift assays separate free from complexed probe on a gel.)

The test system of series [1] is RsmN (Pseudomonas aeruginosa).
The subject of series [2] is T1, RsmN (Pseudomonas aeruginosa), ORF:fe30c157.
T1 sequence: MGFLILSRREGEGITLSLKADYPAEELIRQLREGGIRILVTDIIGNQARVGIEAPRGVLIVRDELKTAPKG

In series [3] the target is RsmA (Pseudomonas aeruginosa) (UniProt O69078).

pKd: −log10 of the molar value.

Sequence of RsmA (Pseudomonas aeruginosa) (O69078 whole entry): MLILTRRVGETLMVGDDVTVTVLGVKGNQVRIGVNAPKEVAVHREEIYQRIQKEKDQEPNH

The term pKd denotes the negative decadic logarithm of the Kd, by convention in mol/L. Low values mean a large Kd, high ones a small Kd. Turning to 5' CrcZ, in series [1], the pKd is 6.95. Turning to “GGAAACUCUGUCCGCUGUGAUGGAUAACGAAGCGGAUGAACUCGAGUUGCGGCGGGUGCUCGCAGCUUGCGGCGAGGAUGCCGAGCUGCGUUCCACCUGGUCGCGUUACCAGUUGGCGCGGUCCGUCAUGCACCGCGAGCCUACCCUGCCGAAGCUGGAUAUCGCUGCGGCGGUCUCUGCUGCCCUGGCCGACGAGGCCGCUCCGCCGAAAGCGGAGAAGGGACCGUGGCGGAUGGUCGGUCGGGGGGGGGUUUUUUUU [mucA internal RNA]”, the pKd in series [2] was 6.83. Further, in series [3], the Kd result was “binds”. In series [2], “GGACAAAAUAAGCAAAUGGAGCGUAUGACCAUGGACAAACCGGCCUCGCGGCAUUUCAGCGUCUUGAUCAUCGAUGAUGAACCCCAGGUGACCUCGGAACUCCGCGAACUGCUGGAAAACGGGGGGGGGUUUUUUUU [pprB leader RNA]” showed a pKd of 6.64. For the same substance, the binding entry in series [3] is listed as “binds”. Regarding “GGCAUCAGCGACCAAAGCAAUCCGUUUGCUAUUGAACUCCCAGCCUGGGAGAUAUCCCUGAAGCGACUGGCUCAAGGGACGGGUCGACAAACAAAAACAACAAGCCCGAAAUCAUAAUAAAAACAAAGCACGCACCUACUUGGGGGGGGGUUUUUUUU [3' CrcZ]”, the binding result is recorded as “no binding” in series [2] and “binds” in series [3]. As to “GGGUCAGGACAUUGCGCAGGAAGCGCCAAAGACAAUACGGAAACUCAGGGAAUCCACCAUGGAUGGUGGCGUAGCACGGAUGUCAGGAUAGAGGUCUGCAAAACCCCGCCCAAAAGGCGGGGGGGGGUUUUUUUU [RsmY full length]”, the binding result in series [2] and in series [3] was “binds” in each case. Take “GGUAACGACUCCAGCACAACAAAAACAAAAUCGCGGAGGCGCAGCUAACUGAUUCUUUUGGAGAGGAGUUGCUGUCGGGACCCGUCCCGCAGCCAGUCGGAAGAAGAAUAAAACUGCCUUGAGGCAGCGCACAGACUGGUUGGAUCGCUCGACGAUCAUGGCAGCAUCAGGGGGGGGGUUUUUUUU [5' CrcZ]”: the pKd in series [2] was 6.95. The binding entry in series [3] was “no binding”. The substance fhA1 leader RNA gave a negative logarithm of the Kd (pKd) in series [1] of 7.21.

mucA internal RNA gave a pKd in series [1] of 6.83. In the case of pprB leader RNA, in series [1], the pKd was 6.64. As to pslA RNA (non-specific), the pKd in series [1] was less than 6.00.
